The record followed here is PMC4751342.

Experiment [1] deals with human Izumo1, immobilized AVEXIS bait, Q8IYV9. Kind of experiment: AVEXIS. The conditions noted are these: chain shown with the change;; parent: est. 0.16; read off a plot.
Experiment [2] addresses T1, mouse Izumo1, immobilized AVEXIS bait, Q9D9J7.
T1 chain: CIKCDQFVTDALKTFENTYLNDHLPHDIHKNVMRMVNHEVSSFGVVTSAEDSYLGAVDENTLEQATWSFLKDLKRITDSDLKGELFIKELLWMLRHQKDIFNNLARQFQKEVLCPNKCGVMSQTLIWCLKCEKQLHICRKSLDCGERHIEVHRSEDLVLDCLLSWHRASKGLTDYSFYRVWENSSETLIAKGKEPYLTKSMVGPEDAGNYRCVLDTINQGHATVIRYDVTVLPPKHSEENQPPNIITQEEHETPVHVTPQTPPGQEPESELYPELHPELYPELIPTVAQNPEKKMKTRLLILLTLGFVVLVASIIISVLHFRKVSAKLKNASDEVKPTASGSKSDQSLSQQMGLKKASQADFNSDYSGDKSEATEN
Kind of experiment: AVEXIS. The conditions noted are these: chain shown with the change;; parent: est. 0.51; read off a plot.

human Izumo1, immobilized AVEXIS bait, Q8IYV9, sequence (Q8IYV9 22-350): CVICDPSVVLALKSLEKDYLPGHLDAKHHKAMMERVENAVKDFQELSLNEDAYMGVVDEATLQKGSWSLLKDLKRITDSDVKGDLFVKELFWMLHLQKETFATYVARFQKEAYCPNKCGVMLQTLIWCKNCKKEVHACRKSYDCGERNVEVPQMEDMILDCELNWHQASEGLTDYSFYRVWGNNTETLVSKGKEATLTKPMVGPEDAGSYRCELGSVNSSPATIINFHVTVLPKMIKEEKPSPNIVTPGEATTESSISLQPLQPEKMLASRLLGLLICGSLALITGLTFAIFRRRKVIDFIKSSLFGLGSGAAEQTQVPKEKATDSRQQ

B1: mouse Juno, wild type, AVEXIS prey, Q9EQF4 N185S (protein)
chain: GDKLLSVCMNSKRHKQEPGPEDELYQECRPWEDNACCTRSTSWEAHLEEPLLFNFSMMHCGLLTPACRKHFIQAICFHECSPNLGPWIQPVVPNGQEEQRVWGVPLCQEDCEDWWRACHSSLTCKSNWLHGWDWSEEKKHCPAHEPCLPFSYHFPTPDDLCEKIWSNTFKASPERRNSGRCLQKWFEPTLSNPNVEVALHFAG
On to B1, for which the response in experiment [1] was determined as 0.17 A 485 nm; in experiment [2], 0.5 A 485 nm.
